Measurements reported in paper PMC3681696 (Molecular Biology of the Cell, 2013).

Molecular target: purified muscle actin filaments (UniProt P68135 1-377)

B1: recombinant Rng2p calponin homology domain (domain or fragment)
chain: MDVNVGLSRLQSQAGAPVGTKGSNTRLAAKQRETLQAYDYLCRVDEAKKWIEECLGTDLGPTSTFEQSLRNGVVLALLVQKFQPDKLIKIFYSNELQFRHSDNINKFLDFIHGIGLPEIFHFELTDIYEGKNLPKVIYCIHALSYFLSMQDLAPPLIKSDENLSFTDEDVSIIVRRLRQSNVILPNFKAL
B1 gave a Kd of about 20 µM.
